{
  "source": "paper PMC6397515",
  "key": {"[1]": {"molecular_target": "HypT RD M206Q mutant protein (Salmonella enterica serovar Typhimurium)", "test": "crystal structure"}, "[2]": {"molecular_target": "full-length StHypT protein (HypT of Salmonella enterica serovar Typhimurium, WP_000383509) (Salmonella enterica serovar Typhimurium)", "test": "SEC"}, "[3]": {"molecular_target": "full-length StHypT protein (HypT of Salmonella enterica serovar Typhimurium, WP_000383509) (Salmonella enterica serovar Typhimurium)", "test": "crystal structure"}},
  "data": [
    {"substance": "HypT RD M206Q mutant protein (domain or fragment)", "values": [
      {"measurement": "stoichiometry N", "setting": "[1]", "result": 2}
    ]},
    {"substance": "full-length StHypT protein (HypT of Salmonella enterica serovar Typhimurium, WP_000383509) (natural protein)", "values": [
      {"measurement": "stoichiometry N", "setting": "[2]", "result": 4},
      {"measurement": "stoichiometry N", "setting": "[3]", "result": 4}
    ]}
  ]
}
